Data on two molecules can be found in patent US20190002534A1 (UNIVERSITY OF MASSACHUSETTS, published 2019).

Assay [1] concerns the target T1, G glycoprotein of rabies virus street isolate DR Brazil (rabies virus, isolate DR Brazil …). Kind of assay: cell-based or functional assay.
For assay [2], the target named is T1, G glycoprotein of rabies virus street …. Kind of assay: cell-based or functional assay. The source holds these as a separate data set.

B1: anti-rabies virus human monoclonal antibody 17C7 (antibody, V domains shown)
VH: QVQLVESGGGVVQPGRSLRLSCAASGFTFSTYAMHWVRQAPGKGLEWVAVVSYDGRTKDYADSVKGRFTISRDNSKNTLYLQMNSLRTEDTAVYFCARERFSGAYFDYWGQGTLVTVSS
VL: EIVLTQSPATLSLSPGERATLSCRASQSVSSYLAWYQQKPGQAPRLLIYDASNRATGIPARFSGSGSGTDFTLTISSLEPEDFAVYSCQQRNNWPPTFGGGTKVEIK
For B1, the “EC50 neutralization by RFFIT (Test A)” value in assay [1] was 0.222 µg/mL. The “EC50 neutralization by RFFIT” value in assay [2] was 222 ng/mL.

B2: anti-rabies virus human monoclonal antibody 2B10 (antibody, V domains shown)
VH: EVQLVQSGGGLVHPGGSLRLSCAGSGFTFSYFAMHWVRQAPGKGLEWVSTIGTGGGTYYADSVKGRFTISRDNAKNSLYLQMNSLRAEDMAVYYCARDNALRSFDWLFYSFDYWGQGTLVTVSS
VL: EIVLTQSPGTLSLSPGERATLSCRASQSISSSYLAWYQQKPGQAPRLLIYGASSRATGIPDRFSGSGSGTDFTLTISRLEPEDFAVYYCQRYGSSYTFGQGTKLEIK
On to B2, for which the “EC50 neutralization by RFFIT (Test A)” value in assay [1] is 0.004 µg/mL. The “EC50 neutralization by RFFIT” value in assay [2] amounted to 4 ng/mL.
